± gives the standard deviation.
Assay: protein stability index of a GFP-peptide fusion (GPS, HEK-293T) (PSI 1-6); higher = more stable
Details: c terminus: a fixed tail appended
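Note: 24-mer peptide tiles fused after GFP, lentivirally expressed, FACS-sorted into six equal bins by GFP/DsRed ratio, decoded by Illumina sequencing, PSI is the read-weighted mean bin number.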

Sequence TLWKHQFAWPFYQPVDAIKLNLPD [BRD3] has a protein stability index (treatment: DMSO) of 2.46 ± 0.63 and a protein stability index (treatment: MLN4924 1 uM, 8 h) of 2.3 ± 0.13.
TMQLFSKQNPSRQEVTKLQQQVKT [FBXO28] gave a protein stability index (treatment: DMSO) of 3.74 ± 0.2 and a protein stability index (treatment: MLN4924 1 uM, 8 h) of 3.75 ± 0.28.
For TNFVSRYDPRFNSWIQLPPMQERR [KLHL14], the protein stability index (treatment: DMSO) was 3.22 ± 0.084 and the protein stability index (treatment: MLN4924 1 uM, 8 h) was 3.34 ± 0.31.
For TNFVVQVSVFIGVLIDLWKITKVM [CLPTM1], the protein stability index (treatment: DMSO) was 3.1 ± 0.67 and the protein stability index (treatment: MLN4924 1 uM, 8 h) was 3.39 ± 0.72.
Sequence TPMATKRSGAGVALLNDHIYVVGG [KLHL12] has a protein stability index (treatment: DMSO) of 2.91 ± 0.26 and a protein stability index (treatment: MLN4924 1 uM, 8 h) of 2.71 ± 0.31.
TPMRVALAGTFHYYSCERAKKAMG [NSDHL] showed a protein stability index (treatment: DMSO) of 2.48 ± 0.5 and a protein stability index (treatment: MLN4924 1 uM, 8 h) of 2.38 ± 0.16.
Work on TPPLKNVRKKRFRKTQKKVPDVKE [TAF7L] yielded a protein stability index (treatment: DMSO) of 4.84 ± 0.37 and a protein stability index (treatment: MLN4924 1 uM, 8 h) of 4.73 ± 0.22.
In the case of TPYVRWNYVAKNFAQALGCVLYAC [SOAT2], the protein stability index (treatment: DMSO) is reported as 2.7 ± 0.84 and the protein stability index (treatment: MLN4924 1 uM, 8 h) is reported as 2.41 ± 0.34.
Work on TSAAALSPMSAATLGGLNPSPSEV [SMTNL2] yielded a protein stability index (treatment: DMSO) of 4.61 ± 0.21 and a protein stability index (treatment: MLN4924 1 uM, 8 h) of 4.62 ± 0.31.
Work on TSDLGTTDVQKKKLVDAIVSGDTS [RIPK4] yielded a protein stability index (treatment: DMSO) of 4.97 ± 0.21 and a protein stability index (treatment: MLN4924 1 uM, 8 h) of 5.09 ± 0.12.
TSPWSECTKTCGVGVRMRDVKCYQ [ADAMTSL2] showed a protein stability index (treatment: DMSO) of 2.81 ± 0.21 and a protein stability index (treatment: MLN4924 1 uM, 8 h) of 2.44 ± 0.38.
TSTKTDSEEGSWAQTLAYGDMNHE [PPFIA4] showed a protein stability index (treatment: MLN4924 1 uM, 8 h) of 4.66 ± 0.54.
Sequence TTSPNVLWPTPGHLSPLVVHRQLS [ESR2] has a protein stability index (treatment: DMSO) of 2.85 ± 0.29 and a protein stability index (treatment: MLN4924 1 uM, 8 h) of 2.72 ± 0.41.
Work on TVKFANNPSQKTGQALLTHLYQSS [ELAVL3] yielded a protein stability index (treatment: DMSO) of 3.01 ± 0.22 and a protein stability index (treatment: MLN4924 1 uM, 8 h) of 3.03 ± 0.38.
For TVQSRPRIDGKLDSPSRSPSKVEV [C2CD2L], the protein stability index (treatment: DMSO) was 4.78 ± 0.21 and the protein stability index (treatment: MLN4924 1 uM, 8 h) was 4.65 ± 0.37.
Work on TWRHRETLIIAVLVSASIANLWLW [FATE1] yielded a protein stability index (treatment: DMSO) of 3.2 ± 0.37 and a protein stability index (treatment: MLN4924 1 uM, 8 h) of 2.77 ± 0.26.
For TYEPFCKVPVITSSKEEQKLIATS [KCTD10], the protein stability index (treatment: DMSO) was 4.27 ± 0.2 and the protein stability index (treatment: MLN4924 1 uM, 8 h) was 4.16 ± 0.37.
In the case of TYVSPPGNEEEESKIFTTLDPASL [DDIT3], the protein stability index (treatment: DMSO) is reported as 4.91 ± 0.26 and the protein stability index (treatment: MLN4924 1 uM, 8 h) is reported as 5.08 ± 0.065.
For VAEKVVVITKHNDDEQYAWESSAG [HSP90AB1], the protein stability index (treatment: DMSO) was 4.53 ± 0.11 and the protein stability index (treatment: MLN4924 1 uM, 8 h) was 4.34 ± 0.29.
For VAHVKHLSASQKALKEKEKASWSS [COX4I1], the protein stability index (treatment: DMSO) was 3.57 ± 0.4 and the protein stability index (treatment: MLN4924 1 uM, 8 h) was 3.83 ± 0.34.
Work on VCKGLPQHEEICLGLFTLILTEPA [INTS3] yielded a protein stability index (treatment: DMSO) of 2.53 ± 0.47 and a protein stability index (treatment: MLN4924 1 uM, 8 h) of 2.5 ± 0.48.
VDFSLSGRLLFAGYNDYTINVWDV [GNB5] showed a protein stability index (treatment: DMSO) of 3.23 ± 0.53 and a protein stability index (treatment: MLN4924 1 uM, 8 h) of 2.58 ± 0.61.
Sequence VERKRLRNRLAATKCRKRKLERIA [JUNB] has a protein stability index (treatment: DMSO) of 4.07 ± 0.42 and a protein stability index (treatment: MLN4924 1 uM, 8 h) of 4.2 ± 0.34.
With VETARSHQRSSSESYTQSFQSRKP [PI4K2A] the protein stability index (treatment: DMSO) was 5 ± 0.33 and the protein stability index (treatment: MLN4924 1 uM, 8 h) was 5.04 ± 0.29.
In the case of VFKQAKDKVSDGVTKSPEKRSSLP [MAP2], the protein stability index (treatment: DMSO) is reported as 4.92 ± 0.16 and the protein stability index (treatment: MLN4924 1 uM, 8 h) is reported as 4.93 ± 0.099.
With VFLIIYYLDPSVLSGVSCFVMFLC [ARL6IP1] the protein stability index (treatment: DMSO) was 2.64 ± 0.29 and the protein stability index (treatment: MLN4924 1 uM, 8 h) was 2.91 ± 0.91.
Work on VFYCDPCRLRCHPPRGPLAKHRLV [TRIM9] yielded a protein stability index (treatment: DMSO) of 2.19 ± 0.34 and a protein stability index (treatment: MLN4924 1 uM, 8 h) of 2.36 ± 0.29.
In the case of VGALLVYDIAKHLTYENVERWLKE [RAB11A], the protein stability index (treatment: DMSO) is reported as 2.54 ± 0.32 and the protein stability index (treatment: MLN4924 1 uM, 8 h) is reported as 2.32 ± 0.54.
Sequence VGYTTLVGNNHESWGWDLGRNRLY [SPSB1] has a protein stability index (treatment: DMSO) of 2.26 ± 0.35 and a protein stability index (treatment: MLN4924 1 uM, 8 h) of 2.12 ± 0.25.
In the case of VIDGATALWCAAGAGHFEVVKLLV [FEM1B], the protein stability index (treatment: DMSO) is reported as 2.49 ± 0.89 and the protein stability index (treatment: MLN4924 1 uM, 8 h) is reported as 2.36 ± 0.35.
VIHRALDREQVSSYNITVTATDGG [PCDHGA10] gave a protein stability index (treatment: DMSO) of 3.27 ± 0.23 and a protein stability index (treatment: MLN4924 1 uM, 8 h) of 3.14 ± 0.28.
Sequence VIQPALPGQPLPGASVRGLHPVQK [TRAF3IP2] has a protein stability index (treatment: DMSO) of 3.76 ± 0.34 and a protein stability index (treatment: MLN4924 1 uM, 8 h) of 3.66 ± 0.39.
VISPVIQLQPTFTPMRVALAGTFH [NSDHL] gave a protein stability index (treatment: DMSO) of 2.42 ± 0.54 and a protein stability index (treatment: MLN4924 1 uM, 8 h) of 2.1 ± 0.11.
Work on VKARKQEIIKVTEQLIEAINNGDF [CAMK2D] yielded a protein stability index (treatment: DMSO) of 2.59 ± 0.28 and a protein stability index (treatment: MLN4924 1 uM, 8 h) of 2.93 ± 0.3.
Work on VKVHGLLKTFVKQTDHIKGIRQIT [GFOD1] yielded a protein stability index (treatment: DMSO) of 2.53 ± 0.38 and a protein stability index (treatment: MLN4924 1 uM, 8 h) of 2.34 ± 0.41.
With VKVVLIPVGQEIVIPFKVDTILKY [IQUB] the protein stability index (treatment: DMSO) was 3.98 ± 0.88 and the protein stability index (treatment: MLN4924 1 uM, 8 h) was 2.5 ± 0.79.
VLELLGPSLEDLFDLCDRTFSLKT [CSNK1G3] gave a protein stability index (treatment: DMSO) of 2.38 ± 0.57 and a protein stability index (treatment: MLN4924 1 uM, 8 h) of 2.36 ± 0.48.
With VLGINRAYGKNSLSKNLIKMLSKA [AUH] the protein stability index (treatment: MLN4924 1 uM, 8 h) was 2.244 ± 0.021.
Sequence VLIVDWDVHHGQGTQFTFDQDPSV [HDAC6] has a protein stability index (treatment: DMSO) of 2.32 ± 0.42 and a protein stability index (treatment: MLN4924 1 uM, 8 h) of 2.13 ± 0.049.
In the case of VLQIDNARLAADDFRVKYETELAM [KRT18], the protein stability index (treatment: DMSO) is reported as 3.04 ± 0.12 and the protein stability index (treatment: MLN4924 1 uM, 8 h) is reported as 3.3 ± 0.33.
For VLRSRIRFIHLVTGCVLGSSGKVL [POMT2], the protein stability index (treatment: DMSO) was 2.62 ± 0.59 and the protein stability index (treatment: MLN4924 1 uM, 8 h) was 2.63 ± 0.76.
VLSDINLKKGESECQYYIDKLEYL [NET1] gave a protein stability index (treatment: DMSO) of 2.72 ± 0.18 and a protein stability index (treatment: MLN4924 1 uM, 8 h) of 2.94 ± 0.33.
Sequence VLSLACAGGHLAVVELLLAHGADP [ANKRD17] has a protein stability index (treatment: DMSO) of 2.3 ± 0.66 and a protein stability index (treatment: MLN4924 1 uM, 8 h) of 2.44 ± 0.95.
VLVHCEAGISRSPTICMAYLMKTK [DUSP5] gave a protein stability index (treatment: DMSO) of 2.77 ± 0.61 and a protein stability index (treatment: MLN4924 1 uM, 8 h) of 2.39 ± 0.41.
VNNDKSISVQELMGCLGVAKEDGK [SMOC2] gave a protein stability index (treatment: DMSO) of 4.47 ± 0.13 and a protein stability index (treatment: MLN4924 1 uM, 8 h) of 4.62 ± 0.19.

Source: the supplement of paper PMC10567573
